Positions count from the first letter of the chain named.
B1: ASC06-01-IgG1: affinity-matured ASC06 derivative, VH-CDR3 DSYFGYSKGD (SEQ ID NO: 11) (antibody, V domains shown)
VH: QVQLQQSGGGLVQPGGSLRLSCAASGFTFSSYAMSWVRQAPGKGLEWVSAISGSGGSTYYADSVKGRFTISRDNSKNTLYLQMNSLRAEDTAVYYCAKDSYFGYSKGDWGQGTLVTVSS
VL: QSALTQPASVSGSPGQSITISCTGTSSDVGAYNYVSWYQQQPGKAPKLMIYGVSNRPSGVSNRFSGSKSGNAASLTISGLQAEDEADYYCSSYTSSSTYVFGTGTKLTVLG
B2: ASC06-IgG1: parental (WT) ASIC1a-specific antagonist antibody; VL SEQ ID NO: 2, VH SEQ ID NO: 7, VH-CDR3 DSFYGYSKGD (antibody, V domains shown)
VH: B1 VH with Y101F, F102Y
VL: B1 VL
modifications: IgG1 constant regions; Amino acid sequence VH of ASC06; Amino acid sequence VL of ASC06
B3: ASC06-03-IgG1: affinity-matured ASC06 derivative, VH-CDR3 DSFYGRAKGS (SEQ ID NO: 15) (antibody, V domains shown)
VH: B1 VH with Y101F, F102Y, Y104R, S105A, D108S
VL: B1 VL
B4: ASC06-04-IgG1: affinity-matured ASC06 derivative, VH-CDR3 DSFYGRAKGV (SEQ ID NO: 17) (antibody, V domains shown)
VH: B1 VH with Y101F, F102Y, Y104R, S105A, D108V
VL: B1 VL
B5: ASC06-02-IgG1: affinity-matured ASC06 derivative, VH-CDR3 DSFFGRAKGS (SEQ ID NO: 13) (antibody, V domains shown)
VH: B1 VH with Y101F, Y104R, S105A, D108S
VL: B1 VL
B6: ASC06-01-IgG1 (antibody, V domains shown)
VH: B1 VH
VL: B1 VL
notes: Full length IgG1
B7: ASC06-04-IgG1 (antibody, V domains shown)
VH: B1 VH with Y101F, F102Y, Y104R, S105A, D108V
VL: B1 VL
notes: Full length IgG1
B8: ASC06-02-IgG1 (antibody, V domains shown)
VH: B1 VH with Y101F, Y104R, S105A, D108S
VL: B1 VL
notes: Full length IgG1
B9: ASC06-IgG1 (antibody, V domains shown)
VH: B1 VH with Y101F, F102Y
VL: B1 VL
notes: Tested as full length IgG1; also called WT antibody ASC06-IgG1; parental ASC06-IgG1 antibody
B10: ASC06-03-IgG1 (antibody, V domains shown)
VH: B1 VH with Y101F, F102Y, Y104R, S105A, D108S
VL: B1 VL
notes: Full length IgG1

Biological target: T1, recombinant extracellular domain of hASIC1a (hASIC1a-ECD) (Homo sapiens, UniProt P78348)
T1 construct: recombinant extracellular domain of hASIC1a(hASIC1a-ECD)
T1 sequence (P78348 67-427 limits assumed): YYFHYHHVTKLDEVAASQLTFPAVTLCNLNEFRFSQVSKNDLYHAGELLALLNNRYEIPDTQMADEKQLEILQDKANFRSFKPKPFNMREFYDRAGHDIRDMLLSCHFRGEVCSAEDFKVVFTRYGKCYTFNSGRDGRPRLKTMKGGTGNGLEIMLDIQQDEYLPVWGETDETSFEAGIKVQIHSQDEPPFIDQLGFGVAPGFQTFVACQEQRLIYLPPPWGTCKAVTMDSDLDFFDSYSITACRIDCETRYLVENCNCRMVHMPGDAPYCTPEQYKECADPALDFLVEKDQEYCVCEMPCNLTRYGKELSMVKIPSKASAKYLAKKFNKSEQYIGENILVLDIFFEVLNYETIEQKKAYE
Assay: Biacore T200 binding affinity measurement
Conditions: Biacore T200, hASIC1a immobilized, antibody as analyte
Method: Binding affinities of four affinity-matured antibodies in IgG1 format (ASC06-01-IgG1 through ASC06-04-IgG1) to the recombinant extracellular domain of hASIC1a(hASIC1a-ECD) were measured using the Biacore T200™ (GE Healthcare). The ASC06-IgG1 antibody was used as a positive control. All manipulations were followed by the user guide of manufacturer. Briefly, was hASIC1a was immobilized, and serial dilutions of the indicated antibodies were added as analytes. The analysis of the results were processed in BIA Evaluation Software™.

| Molecule | Ka |
| --- | --- |
| B1 | 9.7e+06 M⁻¹ s⁻¹ |
| B2 | 4.7e+06 M⁻¹ s⁻¹ |
| B3 | 680000 M⁻¹ s⁻¹ |
| B4 | 620000 M⁻¹ s⁻¹ |
| B5 | 1.3e+07 M⁻¹ s⁻¹ |

Biological target: T2, ASIC1a (Homo sapiens, UniProt P78348)
T2 construct: expressed in transfected cells
T2 sequence (P78348 1-528): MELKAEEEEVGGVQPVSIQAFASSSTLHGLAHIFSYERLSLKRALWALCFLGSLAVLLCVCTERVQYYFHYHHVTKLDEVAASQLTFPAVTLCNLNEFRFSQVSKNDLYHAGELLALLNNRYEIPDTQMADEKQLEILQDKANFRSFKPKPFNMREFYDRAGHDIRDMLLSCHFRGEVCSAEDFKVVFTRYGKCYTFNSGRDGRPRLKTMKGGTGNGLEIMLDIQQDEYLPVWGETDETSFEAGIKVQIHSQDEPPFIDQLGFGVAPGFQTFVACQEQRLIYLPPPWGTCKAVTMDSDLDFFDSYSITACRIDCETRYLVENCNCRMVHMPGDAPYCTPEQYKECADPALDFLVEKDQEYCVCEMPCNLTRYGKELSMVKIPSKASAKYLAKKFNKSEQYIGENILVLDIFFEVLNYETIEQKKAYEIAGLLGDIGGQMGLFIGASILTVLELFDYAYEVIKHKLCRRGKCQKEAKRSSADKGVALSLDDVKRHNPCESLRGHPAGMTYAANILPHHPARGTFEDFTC
Assay: Patch clamp whole-cell recording of acid-induced hASIC1a currents
Assay type: cell-based
Conditions: 100 nM antibody
Method: FIGS. 4A-4E show the effect of affinity-matured ASC06-IgG1 derivative antibodies on the hASIC1a currents. Shown are the representative current traces recorded from single CHO-K1 cells stably expressing hASIC1a in the absence or presence of 100 nM ASC06-IgG1 (FIG. 4A) or affinity-matured ASC06-IgG1 versions ASC06-01-IgG1 (FIG. 4B), ASC06-02-IgG1 (FIG. 4C), ASC06-03-IgG1 (FIG. 4D), or ASC06-04-IgG1 (FIG. 4E). Amiloride (30 μM) was used as a positive control. “Wash” represents the recovery of the current after the treatment of 100 nM indicated antibody followed by 15 min infusion of washing solution.
Whether the affinity-matured ASC06-IgG1 derivative antibodies have an effect on the acid-induced, hASIC1a-mediated electrical current in cells was tested. An hASIC1a overexpressing stable cell line was used as a model for these studies. Extracellular pH was decreased from pH 7.4 to pH 6.0 and the amplitudes of the hASIC1a-mediated inward currents were recorded in the whole-cell recording mode in the presence of the affinity-matured ASC06-IgG1 derivative antibodies (FIGS. 4A-4E). The ASIC1a inhibitor amiloride (30 μM) was used as a positive control for the inhibition of ASIC1a currents.

| Molecule | blockage of ASIC1a-mediated currents compared to ASC06-IgG1 |
| --- | --- |
| B3 | stronger blockage |
| B4 | stronger blockage |
| B5 | stronger blockage |

Same assay, conditions: 300 nM antibody; pH 7.4 to pH 6.0; mean ± standard deviation

| Molecule | Percent inhibition of the acid induced-hASIC1a currents |
| --- | --- |
| B4 | 96.8 ± 3.4% |

Biological target: T3, hASIC1a on CHO-K1 cells stably expressing hASIC1a (human, UniProt P78348 1-528)
T3 sequence (looked up): T2 sequence (P78348 1-528)
Assay: cell-based or functional assay
Conditions: not given

| Molecule | IC50 for the inhibition of ASIC1a currents, FMP assay |
| --- | --- |
| B6 | 74 nM |
| B7 | 51.8 nM |
| B8 | 30.5 nM |
| B9 | 251 nM |

Biological target: T3, hASIC1a on CHO-K1 cells stably …
Assay: cell-based or functional assay
Conditions: not given
Remark: another data set of the same source

| Molecule | Percent inhibition of the acid induced-hASIC1a currents, 30 nM antibody (Patch Clamp) | Percent inhibition of the acid induced-hASIC1a currents, 100 nM antibody (Patch Clamp) |
| --- | --- | --- |
| B10 | 79.4% | 89.7% |
| B6 | 20% | 49% |
| B7 | – | 96.7% |
| B8 | 94.6% | 97.2% |
| B9 | 35.5% | 55.5% |
